In US20190177366A1 (published 2019) one finds IC50 data, which are given here for six molecules.

Usually IC50 stands for the concentration at which inhibition is half-maximal.

The labels stand for the following.
B1: Compound 73 (peptide)
peptide: Ac-CRLPWNLARIGLPC-NH2
modifications: disulfide 1-14
SMILES: CC[C@H](C)[C@@H]1NC(=O)[C@H](CCCNC(=N)N)NC(=O)[C@H](C)NC(=O)[C@H](CC(C)C)NC(=O)[C@H](CC(N)=O)NC(=O)[C@H](Cc2c[nH]c3ccccc23)NC(=O)[C@@H]2CCCN2C(=O)[C@H](CC(C)C)NC(=O)[C@H](CCCNC(=N)N)NC(=O)[C@@H](NC(C)=O)CSSC[C@@H](C(N)=O)NC(=O)[C@@H]2CCCN2C(=O)[C@H](CC(C)C)NC(=O)CNC1=O
B2: Compound 74 (peptide)
peptide: Ac-CRLPWNAQRIGLPC-NH2
modifications: disulfide 1-14
SMILES: CC[C@H](C)[C@@H]1NC(=O)[C@H](CCCNC(=N)N)NC(=O)[C@H](CCC(N)=O)NC(=O)[C@H](C)NC(=O)[C@H](CC(N)=O)NC(=O)[C@H](Cc2c[nH]c3ccccc23)NC(=O)[C@@H]2CCCN2C(=O)[C@H](CC(C)C)NC(=O)[C@H](CCCNC(=N)N)NC(=O)[C@@H](NC(C)=O)CSSC[C@@H](C(N)=O)NC(=O)[C@@H]2CCCN2C(=O)[C@H](CC(C)C)NC(=O)CNC1=O
B3: Compound 78 (peptide)
peptide: Ac-CRAPWNLQRIGLPC-NH2
modifications: disulfide 1-14
SMILES: CC[C@H](C)[C@@H]1NC(=O)[C@H](CCCNC(=N)N)NC(=O)[C@H](CCC(N)=O)NC(=O)[C@H](CC(C)C)NC(=O)[C@H](CC(N)=O)NC(=O)[C@H](Cc2c[nH]c3ccccc23)NC(=O)[C@@H]2CCCN2C(=O)[C@H](C)NC(=O)[C@H](CCCNC(=N)N)NC(=O)[C@@H](NC(C)=O)CSSC[C@@H](C(N)=O)NC(=O)[C@@H]2CCCN2C(=O)[C@H](CC(C)C)NC(=O)CNC1=O
B4: Compound 76 (peptide)
peptide: Ac-CRLPANLQRIGLPC-NH2
modifications: disulfide 1-14
SMILES: CC[C@H](C)[C@@H]1NC(=O)[C@H](CCCNC(=N)N)NC(=O)[C@H](CCC(N)=O)NC(=O)[C@H](CC(C)C)NC(=O)[C@H](CC(N)=O)NC(=O)[C@H](C)NC(=O)[C@@H]2CCCN2C(=O)[C@H](CC(C)C)NC(=O)[C@H](CCCNC(=N)N)NC(=O)[C@@H](NC(C)=O)CSSC[C@@H](C(N)=O)NC(=O)[C@@H]2CCCN2C(=O)[C@H](CC(C)C)NC(=O)CNC1=O
B5: Compound 75 (peptide)
peptide: Ac-CRLPWALQRIGLPC-NH2
modifications: disulfide 1-14
SMILES: CC[C@H](C)[C@@H]1NC(=O)[C@H](CCCNC(=N)N)NC(=O)[C@H](CCC(N)=O)NC(=O)[C@H](CC(C)C)NC(=O)[C@H](C)NC(=O)[C@H](Cc2c[nH]c3ccccc23)NC(=O)[C@@H]2CCCN2C(=O)[C@H](CC(C)C)NC(=O)[C@H](CCCNC(=N)N)NC(=O)[C@@H](NC(C)=O)CSSC[C@@H](C(N)=O)NC(=O)[C@@H]2CCCN2C(=O)[C@H](CC(C)C)NC(=O)CNC1=O
B6: Compound 77 (peptide)
peptide: Ac-CRLAWNLQRIGLPC-NH2
modifications: disulfide 1-14
SMILES: CC[C@H](C)[C@@H]1NC(=O)[C@H](CCCNC(=N)N)NC(=O)[C@H](CCC(N)=O)NC(=O)[C@H](CC(C)C)NC(=O)[C@H](CC(N)=O)NC(=O)[C@H](Cc2c[nH]c3ccccc23)NC(=O)[C@H](C)NC(=O)[C@H](CC(C)C)NC(=O)[C@H](CCCNC(=N)N)NC(=O)[C@@H](NC(C)=O)CSSC[C@@H](C(N)=O)NC(=O)[C@@H]2CCCN2C(=O)[C@H](CC(C)C)NC(=O)CNC1=O

Bridge positions count the residues as written; N and C are the ends.

T1 sequence (A8T644 31-152 limits assumed, chain 1 of 2): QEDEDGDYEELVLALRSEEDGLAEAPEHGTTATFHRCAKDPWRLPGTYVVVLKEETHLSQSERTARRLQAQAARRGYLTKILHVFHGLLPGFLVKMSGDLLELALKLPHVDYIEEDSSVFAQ
T1 sequence (A8T644 other isoform, or with tags, fused parts or gaps limits assumed, chain 2 of 2): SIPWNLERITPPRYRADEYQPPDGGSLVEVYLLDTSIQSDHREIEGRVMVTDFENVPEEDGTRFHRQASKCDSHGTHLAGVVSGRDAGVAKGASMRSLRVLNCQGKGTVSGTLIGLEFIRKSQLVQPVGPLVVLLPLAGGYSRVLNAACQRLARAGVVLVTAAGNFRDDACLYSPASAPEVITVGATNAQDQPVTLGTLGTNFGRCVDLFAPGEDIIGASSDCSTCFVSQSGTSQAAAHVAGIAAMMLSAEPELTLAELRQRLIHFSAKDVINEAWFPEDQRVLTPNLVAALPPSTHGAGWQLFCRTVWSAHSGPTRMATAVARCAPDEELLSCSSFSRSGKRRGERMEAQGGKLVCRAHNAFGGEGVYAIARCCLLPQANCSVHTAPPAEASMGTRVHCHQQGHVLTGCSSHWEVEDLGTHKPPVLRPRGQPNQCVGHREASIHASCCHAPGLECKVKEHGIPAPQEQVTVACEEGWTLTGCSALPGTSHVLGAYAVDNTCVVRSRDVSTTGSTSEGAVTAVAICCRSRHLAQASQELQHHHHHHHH

This experiment has as its target T1, His-tagged, full-length PCSK9 (human, UniProt A8T644 31-152; Q8NBP7 153-692).
T1 construct: Target protein of the PCSK9/EGF(A) TR-FRET assay (10 nM); also called His-PCSK9; proprotein convertase subtilisin/kexin type 9
The experiment can be described thus: TR-FRET competition; competitor EGF(A)-Fc on His-PCSK9. For orientation: In TR-FRET formats the signal depends on donor and acceptor labels being close together.
B1: the IC50 was over 50 µM.

The molecule B2 showed a half-maximal inhibitory concentration (IC50) of over 50 µM.

B3: the half-inhibitory concentration (IC50) is over 50 µM.

In turn, B4 gave an IC50 of over 50 µM.

Regarding B5, the concentration for half-maximal inhibition (IC50) was over 50 µM.

Molecule B6 returned a 50% inhibitory concentration (IC50) of over 50 µM.
